Consider two proteins from US8697714B2, “Quinazolinone based fluorogenic probes” (Nanyang Technological University, priority 2010, dated 2014).

Substrate in series [1]: NCCCOc1ccc(Cl)cc1-c1nc2ccc(Cl)cc2c(=O)[nH]1
Briefly: Enzymatic kinetics of MAO-HPQ 1 oxidation (Lineweaver-Burk plot), MAO B. It counts as biochemical. The settings on record: other: MAO B, Tris-buffer 100 mM pH 7.90, 25° C., pH 7.9. As to the method: (§1) The enzyme kinetics was carried out in Tris-buffer (100 mM, pH 7.90) at 25° C. The enzymatic oxidation of fluorogenic substrate MAO-HPQ 1 was monitored in Varian Cary eclipse Fluorescence spectrophotometer. To a series of different MAO-HPQ 1 substrate concentration (ranged from 0˜250 μM) were added a solution of MAO A or MAO B enzyme with final concentration of […] was added to adjust the final volume to 100 μl. The rate of enzymatic oxidation was monitored with the increase of fluorescent enhancement at 530 nm. The values of the enzyme kinetic parameters (Km and Kcat) were determined from the standard Lineweaver-Burk plot, the double-reciprocal plot of the reaction rate versus MAO-HPQ 1 concentration.
(§2) Measurement of the fluorescent signal at different substrate concentrations provided the Michaelis-Menten kinetics constants.

Substrate in series [2]: NCCCOc1ccc(Cl)cc1-c1nc2ccc(Cl)cc2c(=O)[nH]1
Kind of series: Enzymatic kinetics of MAO-HPQ 1 oxidation (Lineweaver-Burk plot), MAO A. Format: biochemical. The settings on record: other: MAO A, Tris-buffer 100 mM pH 7.90, 25° C., pH 7.9. As to the method:
as §1, §2

The term Km denotes the concentration of substrate that gives half-maximal velocity. For orientation: kcat means the maximal rate divided by the concentration of active sites. One may read the kcat/Km as the second-order rate constant that governs catalysis at low substrate concentration.

B1: MAO B (Homo sapiens) (protein)
chain: MSNKCDVVVVGGGISGMAAAKLLHDSGLNVVVLEARDRVGGRTYTLRNQKVKYVDLGGSYVGPTQNRILRLAKELGLETYKVNEVERLIHHVKGKSYPFRGPFPPVWNPITYLDHNNFWRTMDDMGREIPSDAPWKAPLAEEWDNMTMKELLDKLCWTESAKQLATLFVNLCVTAETHEVSALWFLWYVKQCGGTTRIISTTNGGQERKFVGGSGQVSERIMDLLGDRVKLERPVIYIDQTRENVLVETLNHEMYEAKYVISAIPPTLGMKIHFNPPLPMMRNQMITRVPLGSVIKCIVYYKEPFWRKKDYCGTMIIDGEEAPVAYTLDDTKPEGNYAAIMGFILAHKARKLARLTKEERLKKLCELYAKVLGSLEALEPVHYEEKNWCEEQYSGGCYTTYFPPGILTQYGRVLRQPVDRIYFAGTETATHWSGYMEGAVEAGERAAREILHAMGKIPEDEIWQSEPESVDVPAQPITTTFLERHLPSVPGLLRLIGLTTIFSATALGFLAHKRGLLVRV
notes: purchased Sigma Aldrich
Turning to B1, in series [1], the Km came out at 106.8 ± 5.06 µM, the kcat was 8.47 ± 0.42 min⁻¹ and the catalytic efficiency (kcat/Km) came out at 79300 M⁻¹ min⁻¹.

B2: MAO A (Homo sapiens) (protein)
chain: MENQEKASIAGHMFDVVVIGGGISGLSAAKLLTEYGVSVLVLEARDRVGGRTYTIRNEHVDYVDVGGAYVGPTQNRILRLSKELGIETYKVNVSERLVQYVKGKTYPFRGAFPPVWNPIAYLDYNNLWRTIDNMGKEIPTDAPWEAQHADKWDKMTMKELIDKICWTKTARRFAYLFVNINVTSEPHEVSALWFLWYVKQCGGTTRIFSVTNGGQERKFVGGSGQVSERIMDLLGDQVKLNHPVTHVDQSSDNIIIETLNHEHYECKYVINAIPPTLTAKIHFRPELPAERNQLIQRLPMGAVIKCMMYYKEAFWKKKDYCGCMIIEDEDAPISITLDDTKPDGSLPAIMGFILARKADRLAKLHKEIRKKKICELYAKVLGSQEALHPVHYEEKNWCEEQYSGGCYTAYFPPGIMTQYGRVIRQPVGRIFFAGTETATKWSGYMEGAVEAGERAAREVLNGLGKVTEKDIWVQEPESKDVPAVEITHTFWERNLPSVSGLLKIIGFSTSVTALGFVLYKYKLLPRS
notes: purchased Sigma Aldrich
Regarding B2, in series [2], the Km was determined as 146.1 ± 7.21 µM and the kcat came to 9.76 ± 0.49 min⁻¹.
